In the supplement of paper PMC10567573:
± gives the standard deviation.

Test: protein stability index of a GFP-peptide fusion (GPS, HEK-293T) (PSI 1-6); higher = more stable
[1] = treatment: DMSO, c terminus: a fixed tail appended
[2] = treatment: MLN4924 1 uM, 8 h, c terminus: a fixed tail appended
[3] = treatment: DMSO, c terminus: native
[4] = treatment: MLN4924 1 uM, 8 h, c terminus: native
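Note: 24-mer peptide tiles fused after GFP, lentivirally expressed, FACS-sorted into six equal bins by GFP/DsRed ratio, decoded by Illumina sequencing, PSI is the read-weighted mean bin number.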

Sequence | protein stability index [1] | protein stability index [2] | protein stability index [3] | protein stability index [4]
LIKPSRVVAILAAACLLQLDGLIQ [GMCL1] | 3.11 ± 0.32 | 2.89 ± 0.27 |  | 
KELEKRREESQHEIKDVLVWTNDQ [PPFIA4] | 5.27 ± 0.17 | 5.25 ± 0.21 |  | 
TSRNLIGGADIIVIKYNVNDKFSF [RHOBTB3] | 2.83 ± 1.2 | 2.68 ± 1.6 |  | 
QADLELIESAHRSRIKVLETSYQQ [FBF1] | 5.22 ± 0.16 | 5.11 ± 0.12 |  | 
VAHCHQSAIVLGDLKLRKFVFSTE [TRIB1] | 2.25 ± 0.36 | 2.36 ± 0.63 |  | 
TYPAHQNRVSAIIFSLATEWVIST [WDFY1] | 3.57 ± 0.89 | 2.92 ± 1.1 |  | 
NCTLIISYQKPKEVVVAESELQKE [DPCD] | 2.18 ± 0.19 | 2.49 ± 0.2 |  | 
TYGQPKQAPPADFIPAHVAFDKKV [EFHC1] | 3.81 ± 0.34 | 4.16 ± 0.061 |  | 
CMCTVGERLYVIGGNHFRGTSDYD [KLHL13] | 1.95 ± 0.17 | 2.38 ± 0.23 |  | 
MKEQDLMCIKLHGVSKVGLRKIID [KLHL13] | 2.18 ± 0.53 | 2.15 ± 0.44 |  | 
LLATAEQEQLSLSQRQAKELKLEQ [LRRC45] | 4.88 ± 0.21 | 5.02 ± 0.15 |  | 
AFASFTSGVVRIWDLRDQSVVRDL [TLE6] | 2.36 ± 0.47 | 2.21 ± 0.35 |  | 
CLPAGPRVYFLKGGYETFYSEYPE [DUSP5] | 2.29 ± 0.22 | 2.28 ± 0.31 |  | 
LVRETDELRRNHCFQDFKEEKPQE [ELOA2] | 4.28 ± 0.24 | 4.41 ± 0.28 |  | 
SRPQSSRPVLLSKIEGHQDAVTAA [WDFY1] | 4.28 ± 0.33 | 4.3 ± 0.35 |  | 
DQFLEDVRLQERTSGGLLSEAPNE [NOP53] | 5.23 ± 0.13 | 5.38 ± 0.31 |  | 
NIPGDVLRAVEQAMGHSQDRLTTF [LRRC45] | 3.09 ± 0.14 | 3.19 ± 0.078 |  | 
ADPVLDLPLPPPPPEPLSQVSMWD [APBB1IP] | 3.46 ± 0.68 | 3.94 ± 0.62 |  | 
PLEYQFKSQIMSLSHSPQEDWVLL [TLE6] | 2.26 ± 0.29 | 2.37 ± 0.4 |  | 
GSSSLGFTSSPSPFSSSSPENVED [FCHO1] | 5.38 ± 0.2 | 5.29 ± 0.19 |  | 
EASERFAAGYIQCMHEVHTFVSTC [HES6] | 2.21 ± 0.23 | 2 ± 0.36 |  | 
RQVPGSDPACYEFLWGPRALVETS [MAGEA3] | 3.11 ± 0.23 | 3.04 ± 0.37 |  | 
ERKKVQIRSMDPSALASDRFNLIL [DCAF4] | 2.29 ± 0.16 | 2.5 ± 0.23 |  | 

Sequence | protein stability index [1] | protein stability index [2] | protein stability index [3] | protein stability index [4]
IFLGFSSLARLQQLLFVIFLLLYL [OR10K2] | 2.65 ± 0.58 | 2.31 ± 0.52 |  | 
MKRHSSRDAAGKPQRPRSAPRTSS [FCHO1] | 4.82 ± 0.28 | 4.92 ± 0.34 |  | 
VVNESTVCLMGHERRQTLNLISLL [TENT5C] | 2.18 ± 0.23 | 2.31 ± 0.12 |  | 
ELLDEKLLARGTMQPFNYVTLQCL [FEM1A] | 2.56 ± 0.41 | 2.44 ± 0.57 |  | 
DRPMFMLQCAMEENCLSASAAQTD [LOXL2] | 2.38 ± 0.52 | 1.94 ± 0.19 |  | 
GSSDHSVIMWDIGGRKGTAIELQG [WDFY2] | 2.84 ± 0.43 | 2.83 ± 0.2 |  | 
VKDALFCSCLSDILRFIYSGAFQW [RHOBTB3] | 2.79 ± 0.36 | 3.31 ± 0.48 |  | 
ELERARELKEKEATLCLEFLLQND [ANKRD44] | 3.94 ± 0.2 | 4.13 ± 0.35 |  | 
PNINKISMQAVLDYLYTKQLSPNL [RHOBTB1] | 2.25 ± 0.68 | 2.16 ± 0.31 |  | 
IMIIICCVILGIVIASTVGGIFA [STX1A] |  |  | 3.62 ± 0.33 | 3.79 ± 0.14
DKQRKANESKGTRESWDSAKKLPP [ELOA2] | 5.11 ± 0.19 | 5.06 ± 0.19 |  | 
FETHESDINSVRYYPSGDAFASGS [GNB5] | 3.9 ± 0.25 | 3.94 ± 0.16 |  | 
FRQMATALAHCHQHGLVLRDLKLC [TRIB3] | 2.21 ± 0.38 | 2.03 ± 0.3 |  | 
ADHGEPIGRGTKVILHLKEDQTEY [HSP90AB1] | 4.76 ± 0.2 | 4.89 ± 0.29 |  | 
IALGQMLSLCICGTAITSQYLAER [SLC35F2] | 3.37 ± 0.27 | 2.48 ± 0.16 |  | 
TTGPNPFTTLTDRELEEYRREVER [ADD1] | 5.08 ± 0.18 | 5.16 ± 0.21 |  | 
AYSLNKIHAYNLGTNAWEEIATKP [KLHDC10] | 2.56 ± 0.39 | 2.79 ± 0.57 |  | 
EELKAELVQLEDEITTLRQVLSAK [TPD52L1] | 4.34 ± 0.32 | 4.22 ± 0.28 |  | 
PGAFIAGVPVQPVLIRYPNSLDTT [LPCAT4] | 2.72 ± 0.19 | 2.75 ± 0.36 |  | 
EISALNGNRINVPMVRKRSVSNST [DLC1] | 3.5 ± 0.071 | 3.5 ± 0.32 |  | 
NEHKSCEEKSVKNTSIRVADFGSA [CLK3] | 4.89 ± 0.16 | 5.03 ± 0.14 |  | 
GPARSGFRLETLAGLRSRRLKQPK [MIR22HG] | 3.87 ± 0.24 | 4.14 ± 0.13 |  | 
GATWRTSGLLEELNAEAGHLDPGF [C18orf25] | 3.98 ± 0.43 | 3.75 ± 0.52 |  | 

Sequence | protein stability index [1] | protein stability index [2] | protein stability index [3] | protein stability index [4]
VGLRNTLTRIRKWIEHSKLREINF [GLT8D2] | 2.41 ± 0.3 | 1.9 ± 0.31 |  | 
DRQELTYQELLRVCCCELGVNPDQ [ANKRD40] | 3.24 ± 0.24 | 3.34 ± 0.36 |  | 
TDHILESLYRDIRDIQDENQLLVA [STX11] | 3.22 ± 0.3 | 3.24 ± 0.39 |  | 
ILNTTGTYSGKAADVWSLGVMLYT [TRIB1] | 2.7 ± 0.76 | 2.25 ± 0.6 |  | 
VVGDNAVGKTRLICARACNATLTQ [RHOBTB2] | 2.63 ± 0.17 | 2.67 ± 0.14 |  | 
LWLRPETHTKEQILELVVLEQFVA [ZNF24] | 2.26 ± 0.61 | 2.35 ± 0.45 |  | 
YQLCRVQECPPDGRSFREEQCVSF [ADAMTSL2] | 2.92 ± 0.65 | 2.97 ± 0.32 |  | 
EDQEGSPPETSLPYKWVVEAANLL [MYBL2] | 3.96 ± 0.18 | 3.915 ± 0.031 |  | 
MSYHSGSVFSARDRDPNSLLISCA [TNXB] | 2.51 ± 0.2 | 2.44 ± 0.15 |  | 
VSTQPAMMVNLRACSAPGGLVPSE [C2CD2L] | 3.43 ± 0.16 | 3.5 ± 0.14 |  | 
SNFYTVAVTSLSSQIQYMNTVVST [TMEM106C] | 3.13 ± 0.59 | 3.11 ± 0.49 |  | 
NRFEVTLEKSNKNFSKKIQQIHVV [VPS39] | 2.36 ± 0.4 | 2.42 ± 0.22 |  | 
LLRREPAERLTATGILLHPWLRQD [TRIB3] | 2.47 ± 0.27 | 2.45 ± 0.25 |  | 
CPLTPGPGKALGPAATMAVELHYE [C2CD2L] | 3.67 ± 0.14 | 3.76 ± 0.28 |  | 
QSFGRLSLQPQQQQQRQRPPRPPP [N4BP2L1] | 4.64 ± 0.2 | 4.6 ± 0.32 |  | 
WRGNGINVLKIAPESAIKFMAYEQ [SLC25A25] | 2.19 ± 0.29 | 2.36 ± 0.19 |  | 
YCFMIAYGTQRTLILESQNWRYAT [FUT8] | 3.46 ± 0.51 | 3.28 ± 0.27 |  | 
LLATFPRRALAPPSAGFRCCAAPG [ANKRD9] | 2.47 ± 0.16 | 2.45 ± 0.14 |  | 
ASYDKTVRAWDLETGKLLWKVRYD [WDR88] | 2.31 ± 0.4 | 2.14 ± 0.31 |  | 
PSIMPQKHWVYVKRGGNCPAPAPL [ZBTB22] | 2.85 ± 0.19 | 2.81 ± 0.32 |  | 
EGSYRIHVLHHGTGKWYELQDLQV [USP39] | 2.73 ± 0.69 | 2.58 ± 0.77 |  | 
EPQGLGYWEAWRHHCQGKDLTEWV [SPACA3] | 3.85 ± 0.2 | 3.8 ± 0.45 |  | 
AFQITGVWDASRAPRGTPDPGLGE [PLEKHN1] | 3.85 ± 0.31 | 3.78 ± 0.21 |  | 

Sequence | protein stability index [1] | protein stability index [2] | protein stability index [3] | protein stability index [4]
LKFDAYFQEDVPMSTEEQYRIRQV [EFHC1] | 3.44 ± 0.14 | 3.46 ± 0.28 |  | 
QESSFRSRKIAVEDENDLEELNNG [MIA2] | 5.32 ± 0.92 | 5.48 ± 0.15 |  | 
EMIITKAGRRMFPSYKVKVTGLNP [TBX5] | 2.12 ± 0.14 | 2.4 ± 0.32 |  | 
PVDAEALELHDYHDIIKHPMDLST [BRD3] | 4.63 ± 0.34 | 4.67 ± 0.32 |  | 
IKAEPASPDSPKGSSETETEPPVA [ESRRA] | 5.58 ± 0.17 | 5.62 ± 0.11 |  | 
IGREGAKDSYDFFTEIKTITVKH [ALDH8A1] |  |  | 2.35 ± 0.43 | 2.42 ± 0.25
CKLQEQLEATVKKLEESKQLLKNN [SASS6] | 3.7 ± 0.15 | 3.47 ± 0.26 |  | 
RCVSFQARFAEKEELMLVHSLEYI [HDAC6] |  | 2.19 ± 0.3 |  | 
SFTLEEEEEGGEEEEEAAMYEEEM [FAM50A] | 5.47 ± 0.43 | 5.36 ± 0.2 |  | 
WLLTKIDHWNNEKERILLVTDKTL [TPRG1] | 2.11 ± 0.41 | 2.16 ± 0.28 |  | 
CFARKSQLTGHQRIHSGEEPHKCP [ZNF449] | 3.64 ± 0.1 | 4.01 ± 0.18 |  | 
KHVLYVEHRHLNPDTELKRYFGAR [TCF25] | 2.29 ± 0.42 | 2.48 ± 0.36 |  | 
MAAQRNRSKESKDCSGLVLLCLFF [PCDHGA10] | 2.29 ± 0.27 | 1.83 ± 0.32 |  | 
RFPGRKQPGVHEEPVLKKWPKLKS [C22orf31] | 3.72 ± 0.49 | 3.57 ± 0.15 |  | 
DSACDESSCIPKAFGNPKFALQGL [IRX6] | 3.62 ± 0.24 | 3.6 ± 0.23 |  | 
ILLESHMVMIRGNSGLKPKDNEFT [POMT2] | 2.21 ± 0.31 | 2.15 ± 0.21 |  | 
DHFQKFLPTVGGQLGTAGQGFSYS [MYOZ1] | 2.81 ± 0.13 | 2.79 ± 0.27 |  | 
GHPFFEGVDWEHIRERPAAIPIEI [STK38L] | 2.46 ± 0.39 | 2.84 ± 0.38 |  | 
WVLEPVLEGWRPDQLYRRKKDNHA [ELOA2] | 2.51 ± 0.31 | 3.34 ± 0.14 |  | 
DRLRRNWPPSFLSEFRALQFSLML [SPNS1] | 2.65 ± 0.6 | 2.31 ± 0.51 |  | 
